Results published in paper PMC4619145 (Virology, 2015).

Columns and labels:
[1] = target: T1, DENV-2 envelope glycoprotein E domain III (DIII), wild type, displayed on M13 phage (Dengue virus 2, Jamaica/1409/1983); assay: ELISA
T1 chain: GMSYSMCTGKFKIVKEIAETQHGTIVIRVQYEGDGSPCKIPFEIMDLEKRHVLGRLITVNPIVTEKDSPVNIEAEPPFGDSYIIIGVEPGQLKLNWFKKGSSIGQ

[2] = target: T2, DENV-3 envelope glycoprotein E domain III (DIII), wild type, displayed on M13 phage (Dengue virus 3, Thailand/PaH881/1988); assay: ELISA
T2 chain: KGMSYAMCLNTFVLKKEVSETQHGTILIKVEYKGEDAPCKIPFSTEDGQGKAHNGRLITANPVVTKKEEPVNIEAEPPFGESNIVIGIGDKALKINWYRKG

B1: monoclonal antibody 4E11 (IgG) (antibody, V domains shown)
VH: VKLLEQSGAELVKPGASVRLSCTASGFNIKDTYMSWVKQRPEQGLEWIGRIDPANGDTKYDPKFQGKATITADTSSNTAYLHLSSLTSGDTAVYYCSRGWEGFAYWGQGTLVTVSA
VL: ELVMTQTPASLAVSLGQRATISCRASENVDRYGNSFMHWYQQKAGQPPKLLIYRASNLESGIPARFSGSGSRTDFTLTINPVEADDVATYFCQRSNEVPWTFGGGTKLEIK
[1]
  binding result: binds
[2]
  binding result: binds
